Nine sequences from the supplement of paper PMC5998384 can be followed below.

The test system of data set [1] is HeLa Kyoto. Description: solubility change mitosis vs G1/S (difference of NP-40 vs SDS log2 ratios) (log2 ratio difference); higher = more soluble in mitosis.
For data set [2], the system named is HeLa Kyoto. Put plainly: melting temperature (median over replicates), in situ; higher = more thermally stable.
For data set [3], the system named is HeLa Kyoto. Put plainly: thermal stability score vs G1/S (z-score of summed log2 fold changes over temperatures); higher = more thermally stable than in G1/S.
Data set [4] relates to HeLa Kyoto. Put plainly: solubility in G1/S (NP-40 vs SDS abundance) (log2 ratio); higher = more soluble. Particulars: cell cycle stage: G1/S.
Setting [5] is: cell cycle stage: early G1 (4.5 h after nocodazole release).
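Throughout, for melting temperature (median over replicates), in situ: HeLa Kyoto cells synchronized by double thymidine or nocodazole block, proteins quantified by TMT10plex mass spectrometry, three independent biological replicates.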
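Throughout, for solubility change mitosis vs G1/S (difference of NP-40 vs SDS log2 ratios): synchronized HeLa Kyoto cells (double thymidine block for G1/S, nocodazole release for mitosis), protein amounts in NP-40 versus SDS lysates quantified by mass spectrometry, three biological replicates.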
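Throughout, for solubility in G1/S (NP-40 vs SDS abundance): HeLa Kyoto cells arrested at G1/S by double thymidine block, proteins quantified by TMT10plex mass spectrometry in mild NP-40 versus SDS extracts, three biological replicates.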
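Throughout, for thermal stability score vs G1/S (z-score of summed log2 fold changes over temperatures): synchronized HeLa Kyoto cells, proteins quantified by TMT10plex mass spectrometry, three biological replicates, mitosis taken 0.5 h after nocodazole release, G1/S directly after double thymidine block.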

As to “MADDLGDEWWENQPTGAGSSPEASDGEGEGDTEVMQQETVPVPVPSEKTKQPKECFLIQPKERKENTTKTRKRRKKKITDVLAKSEPKPGLPEDLQKLMKDYYSSRRLVIELEELNLPDSCFLKANDLTHSLSSYLKEICPKWVKLRKNHSEKKSVLMLIICSSAVRALELIRSMTAFRGDGKVIKLFAKHIKVQAQVKLLEKRVVHLGVGTPGRIKELVKQGGLNLSPLKFLVFDWNWRDQKLRRMMDIPEIRKEVFELLEMGVLSLCKSESLKLGLF [CMSS1]”, the “solubility change mitosis (log2)” value with HeLa Kyoto [1] is 0.103. For the same sequence, the melting temperature in the data set on HeLa Kyoto [2] (cell cycle stage: G1/S) was found to be 49.9 °C; in the data set with HeLa Kyoto [2] (cell cycle stage: mitosis), 50.3 °C. The thermal stability score is 1.03 with HeLa Kyoto [3] (setting [5]) and 0.589 in the data set with HeLa Kyoto [3] (cell cycle stage: mitosis). In the data set on HeLa Kyoto [4], the “solubility in G1/S (log2)” value was -0.211.

“MADDQGCIEEQGVEDSANEDSVDAKPDRSSFVPSLFSKKKKNVTMRSIKTTRDRVPTYQYNMNFEKLGKCIIINNKNFDKVTGMGVRNGTDKDAEALFKCFRSLGFDVIVYNDCSCAKMQDLLKKASEEDHTNAACFACILLSHGEENVIYGKDGVTPIKDLTAHFRGDRCKTLLEKPKLFFIQACRGTELDDGIQADSGPINDTDANPRYKIPVEADFLFAYSTVPGYYSWRSPGRGSWFVQALCSILEEHGKDLEIMQILTRVNDRVARHFESQSDDPHFHEKKQIPCVVSMLTKELYFSQ [CASP7]”: in the data set with HeLa Kyoto [1], the “solubility change mitosis (log2)” value worked out at 0.00474. Besides, the melting temperature came out at 53.9 °C in the data set with HeLa Kyoto [2] (cell cycle stage: G1/S) and 54.2 °C in the data set with HeLa Kyoto [2] (cell cycle stage: mitosis). Besides, the thermal stability score is -0.531 with HeLa Kyoto [3] (setting [5]) and -2.43 in the data set with HeLa Kyoto [3] (cell cycle stage: mitosis). The “solubility in G1/S (log2)” value in the data set with HeLa Kyoto [4] was 0.0897.

Take “MADEGKSYSEHDDERVNFPQRKKKGRGPFRWKYGEGNRRSGRGGSGIRSSRLEEDDGDVAMSDAQDGPRVRYNPYTTRPNRRGDTWHDRDRIHVTVRRDRAPPERGGAGTSQDGTSKNWFKITIPYGRKYDKAWLLSMIQSKCSVPFTPIEFHYENTRAQFFVEDASTASALKAVNYKILDRENRRISIIINSSAPPHTILNELKPEQVEQLKLIMSKRYDGSQQALDLKGLRSDPDLVAQNIDVVLNRRSCMAATLRIIEENIPELLSLNLSNNRLYRLDDMSSIVQKAPNLKILNLSGNELKSERELDKIKGLKLEELWLDGNSLCDTFRDQSTYISAIRERFPKLLRLDGHELPPPIAFDVEAPTTLPPCKGSYFGTENLKSLVLHFLQQYYAIYDSGDRQGLLDAYHDGACCSLSIPFIPQNPARSSLAEYFKDSRNVKKLKDPTLRFRLLKHTRLNVVAFLNELPKTQHDVNSFVVDISAQTSTLLCFSVNGVFKEVDGKSRDSLRAFTRTFIAVPASNSGLCIVNDELFVRNASSEEIQRAFAMPAPTPSSSPVPTLSPEQQEMLQAFSTQSGMNLEWSQKCLQDNNWDYTRSAQAFTHLKAKGEIPEVAFMK [NXF1]”: the “solubility change mitosis (log2)” value in the data set on HeLa Kyoto [1] was found to be 0.533. The melting temperature was determined as 47.3 °C in the data set with HeLa Kyoto [2] (cell cycle stage: G1/S) and 49.1 °C in the data set with HeLa Kyoto [2] (cell cycle stage: mitosis). For the same sequence, the thermal stability score with HeLa Kyoto [3] (setting [5]) worked out at 1.64; with HeLa Kyoto [3] (cell cycle stage: mitosis), 4.14. In addition, the “solubility in G1/S (log2)” value in the data set on HeLa Kyoto [4] is -0.89.

“MADGELNVDSLITRLLEVRGCRPGKIVQMTEAEVRGLCIKSREIFLSQPILLELEAPLKICGDIHGQYTDLLRLFEYGGFPPEANYLFLGDYVDRGKQSLETICLLLAYKIKYPENFFLLRGNHECASINRIYGFYDECKRRFNIKLWKTFTDCFNCLPIAAIVDEKIFCCHGGLSPDLQSMEQIRRIMRPTDVPDTGLLCDLLWSDPDKDVQGWGENDRGVSFTFGADVVSKFLNRHDLDLICRAHQVVEDGYEFFAKRQLVTLFSAPNYCGEFDNAGGMMSVDETLMCSFQILKPSEKKAKYQYGGLNSGRPVTPPRTANPPKKR [PPP1CB]”: the “solubility change mitosis (log2)” value in the data set on HeLa Kyoto [1] was found to be 0.0171. The melting temperature in the data set on HeLa Kyoto [2] (cell cycle stage: G1/S) amounted to 52.3 °C; with HeLa Kyoto [2] (cell cycle stage: mitosis) it was 52.1 °C. The thermal stability score in the data set on HeLa Kyoto [3] (setting [5]) was 0.423; in the data set on HeLa Kyoto [3] (cell cycle stage: mitosis) it was 0.737. Also, in the data set on HeLa Kyoto [4], the “solubility in G1/S (log2)” value was -0.161.

As for “MADGQMPFSCHYPSRLRRDPFRDSPLSSRLLDDGFGMDPFPDDLTASWPDWALPRLSSAWPGTLRSGMVPRGPTATARFGVPAEGRTPPPFPGEPWKVCVNVHSFKPEELMVKTKDGYVEVSGKHEEKQQEGGIVSKNFTKKIQLPAEVDPVTVFASLSPEGLLIIEAPQVPPYSTFGESSFNNELPQDSQEVTCT [HSPB8]”, in the data set with HeLa Kyoto [1], the “solubility change mitosis (log2)” value was 0.167. Besides, the melting temperature with HeLa Kyoto [2] (cell cycle stage: G1/S) is 52.3 °C; in the data set with HeLa Kyoto [2] (cell cycle stage: mitosis), 52.1 °C. Also, the thermal stability score was -0.244 with HeLa Kyoto [3] (setting [5]) and 0.347 with HeLa Kyoto [3] (cell cycle stage: mitosis). The “solubility in G1/S (log2)” value in the data set on HeLa Kyoto [4] worked out at 0.653.

Consider “MADGQVAELLLRRLEASDGGLDSAELAAELGMEHQAVVGAVKSLQALGEVIEAELRSTKHWELTAEGEEIAREGSHEARVFRSIPPEGLAQSELMRLPSGKVGFSKAMSNKWIRVDKSAADGPRVFRVVDSMEDEVQRRLQLVRGGQAEKLGEKERSELRKRKLLAEVTLKTYWVSKGSAFSTSISKQETELSPEMISSGSWRDRPFKPYNFLAHGVLPDSGHLHPLLKVRSQFRQIFLEMGFTEMPTDNFIESSFWNFDALFQPQQHPARDQHDTFFLRDPAEALQLPMDYVQRVKRTHSQGGYGSQGYKYNWKLDEARKNLLRTHTTSASARALYRLAQKKPFTPVKYFSIDRVFRNETLDATHLAEFHQIEGVVADHGLTLGHLMGVLREFFTKLGITQLRFKPAYNPYTEPSMEVFSYHQGLKKWVEVGNSGVFRPEMLLPMGLPENVSVIAWGLSLERPTMIKYGINNIRELVGHKVNLQMVYDSPLCRLDAEPRPPPTQEAA [FARSA]”, for which the “solubility change mitosis (log2)” value in the data set on HeLa Kyoto [1] is -0.0944. The figures for the melting temperature in the data set on HeLa Kyoto [2] (cell cycle stage: G1/S) and in the data set on HeLa Kyoto [2] (cell cycle stage: mitosis) were 50.2 °C and 50.4 °C, respectively. Further, the thermal stability score amounted to 0.422 with HeLa Kyoto [3] (setting [5]) and 0.356 in the data set on HeLa Kyoto [3] (cell cycle stage: mitosis). Moreover, in the data set on HeLa Kyoto [4], the “solubility in G1/S (log2)” value came to 0.0439.

“MADKEKKKKESILDLSKYIDKTIRVKFQGGREASGILKGFDPLLNLVLDGTIEYMRDPDDQYKLTEDTRQLGLVVCRGTSVVLICPQDGMEAIPNPFIQQQDA [LSM7]”: the “solubility change mitosis (log2)” value in the data set on HeLa Kyoto [1] is 0.227. Besides, the results for the melting temperature in the data set on HeLa Kyoto [2] (cell cycle stage: G1/S) and in the data set with HeLa Kyoto [2] (cell cycle stage: mitosis) were 55.3 °C and 53.7 °C, respectively. Further, the thermal stability score in the data set with HeLa Kyoto [3] (setting [5]) is -1.51; with HeLa Kyoto [3] (cell cycle stage: mitosis), -2.73. Further, the “solubility in G1/S (log2)” value in the data set with HeLa Kyoto [4] was 0.0991.

“MADKVLKEKRKLFIRSMGEGTINGLLDELLQTRVLNKEEMEKVKRENATVMDKTRALIDSVIPKGAQACQICITYICEEDSYLAGTLGLSADQTSGNYLNMQDSQGVLSSFPAPQAVQDNPAMPTSSGSEGNVKLCSLEEAQRIWKQKSAEIYPIMDKSSRTRLALIICNEEFDSIPRRTGAEVDITGMTMLLQNLGYSVDVKKNLTASDMTTELEAFAHRPEHKTSDSTFLVFMSHGIREGICGKKHSEQVPDILQLNAIFNMLNTKNCPSLKDKPKVIIIQACRGDSPGVVWFKDSVGVSGNLSLPTTEEFEDDAIKKAHIEKDFIAFCSSTPDNVSWRHPTMGSVFIGRLIEHMQEYACSCDVEEIFRKVRFSFEQPDGRAQMPTTERVTLTRCFYLFPGH [CASP1]”: in the data set with HeLa Kyoto [1], the “solubility change mitosis (log2)” value was -0.0916. Moreover, the melting temperature turned out to be 51.5 °C with HeLa Kyoto [2] (cell cycle stage: G1/S) and 49.6 °C in the data set with HeLa Kyoto [2] (cell cycle stage: mitosis). The thermal stability score with HeLa Kyoto [3] (setting [5]) was 0.996; in the data set with HeLa Kyoto [3] (cell cycle stage: mitosis), 1.73. Also, the “solubility in G1/S (log2)” value in the data set with HeLa Kyoto [4] turned out to be 0.0768.

As for “MADLAECNIKVMCRFRPLNESEVNRGDKYIAKFQGEDTVVIASKPYAFDRVFQSSTSQEQVYNDCAKKIVKDVLEGYNGTIFAYGQTSSGKTHTMEGKLHDPEGMGIIPRIVQDIFNYIYSMDENLEFHIKVSYFEIYLDKIRDLLDVSKTNLSVHEDKNRVPYVKGCTERFVCSPDEVMDTIDEGKSNRHVAVTNMNEHSSRSHSIFLINVKQENTQTEQKLSGKLYLVDLAGSEKVSKTGAEGAVLDEAKNINKSLSALGNVISALAEGSTYVPYRDSKMTRILQDSLGGNCRTTIVICCSPSSYNESETKSTLLFGQRAKTIKNTVCVNVELTAEQWKKKYEKEKEKNKILRNTIQWLENELNRWRNGETVPIDEQFDKEKANLEAFTVDKDITLTNDKPATAIGVIGNFTDAERRKCEEEIAKLYKQLDDKDEEINQQSQLVEKLKTQMLDQEELLASTRRDQDNMQAELNRLQAENDASKEEVKEVLQALEELAVNYDQKSQEVEDKTKEYELLSDELNQKSATLASIDAELQKLKEMTNHQKKRAAEMMASLLKDLAEIGIAVGNNDVKQPEGTGMIDEEFTVARLYISKMKSEVKTMVKRCKQLESTQTESNKKMEENEKELAACQLRISQHEAKIKSLTEYLQNVEQKKRQLEESVDALSEELVQLRAQEKVHEMEKEHLNKVQTANEVKQAVEQQIQSHRETHQKQISSLRDEVEAKAKLITDLQDQNQKMMLEQERLRVEHEKLKATDQEKSRKLHELTVMQDRREQARQDLKGLEETVAKELQTLHNLRKLFVQDLATRVKKSAEIDSDDTGGSAAQKQKISFLENNLEQLTKVHKQLVRDNADLRCELPKLEKRLRATAERVKALESALKEAKENASRDRKRYQQEVDRIKEAVRSKNMARRGHSAQIAKPIRPGQHPAASPTHPSAIRGGGAFVQNSQPVAVRGGGGKQV [KIF5B]”, in the data set with HeLa Kyoto [1], the “solubility change mitosis (log2)” value was -0.0355. Further, the melting temperature with HeLa Kyoto [2] (cell cycle stage: G1/S) and with HeLa Kyoto [2] (cell cycle stage: mitosis) was 51.5 °C throughout. The thermal stability score in the data set on HeLa Kyoto [3] (setting [5]) worked out at 1.12; in the data set with HeLa Kyoto [3] (cell cycle stage: mitosis) it was 0.152. The “solubility in G1/S (log2)” value with HeLa Kyoto [4] was 0.108.
